Experimental data reported in US10800847.

Key:
[1] = target: HLA-A*6802 (A68) single antigen on Luminex beads (human); assay: Luminex single antigen bead assay, iBeads vs regular beads, IVIg 1:8
[2] = target: HLA-A*8001 (A80) single antigen on Luminex beads (human); assay: as above
[3] = target: HLA-A*7401 (A74) single antigen on Luminex beads (human); assay: as above
[4] = target: HLA-A*6901 (A69) single antigen on Luminex beads (human); assay: as above
[5] = target: HLA-A*6802 (A68) single antigen on Luminex beads (human); assay: Luminex single antigen bead assay, iBeads (#6), IVIg 1:8
[6] = target: HLA-A*8001 (A80) single antigen on Luminex beads (human); assay: as above
[7] = target: HLA-A*7401 (A74) single antigen on Luminex beads (human); assay: as above
[8] = target: HLA-A*6901 (A69) single antigen on Luminex beads (human); assay: as above
[9] = target: HLA-A*6802 (A68) single antigen on Luminex beads (human); assay: Luminex single antigen bead assay, regular beads (#7), IVIg 1:8
[10] = target: HLA-A*8001 (A80) single antigen on Luminex beads (human); assay: as above
[11] = target: HLA-A*7401 (A74) single antigen on Luminex beads (human); assay: as above
[12] = target: HLA-A*6901 (A69) single antigen on Luminex beads (human); assay: as above
[13] = target: HLA-B*4001 (B60) single antigen on Luminex beads (human); assay: Luminex single antigen, regular beads (#7), IVIg 1:8
[14] = target: HLA-B*4601 (B46) single antigen on Luminex beads (human); assay: as above
[15] = target: HLA-B*3501 (B35) single antigen on Luminex beads (human); assay: as above
[16] = target: HLA-B*2705 (B27) single antigen on Luminex beads (human); assay: as above
[17] = target: HLA-B*3801 (B38) single antigen on Luminex beads (human); assay: as above
[18] = target: HLA-B*4701 (B47) single antigen on Luminex beads (human); assay: as above
[19] = target: HLA-B*3901 (B39) single antigen on Luminex beads (human); assay: as above
[20] = target: HLA-B*4403 (B44) single antigen on Luminex beads (human); assay: as above
[21] = target: HLA-B*4006 (B61) single antigen on Luminex beads (human); assay: as above
[22] = target: HLA-B*4201 (B42) single antigen on Luminex beads (human); assay: as above
[23] = target: HLA-B*3701 (B37) single antigen on Luminex beads (human); assay: as above
[24] = target: HLA-B*4501 (B45) single antigen on Luminex beads (human); assay: as above
[25] = target: Albumin on negative control beads (serum albumin, HSA/BSA) (human or bovine); assay: Luminex single antigen beads, regular beads (#7), 1:8
[26] = target: HLA-A*0301 (A3) on single antigen beads (human) (UniProt P04439); assay: Luminex single antigen beads, iBeads (#6), 1:8
[27] = target: Albumin on negative control beads (serum albumin, HSA/BSA) (human or bovine); assay: Luminex single antigen beads, iBeads (#6), 1:8
[28] = target: HLA-A*0301 (A3) on single antigen beads (human) (UniProt P04439); assay: Luminex, iBead MFI against regular bead MFI, 1:8
[29] = target: HLA-B*4001 (B60) single antigen on Luminex beads (human); assay: Luminex single antigen, iBeads (#6), IVIg 1:8
[30] = target: HLA-B*4402 (B44) single antigen on Luminex beads (human); assay: Luminex single antigen, iBeads (#6), IVIg 1:8
[31] = target: HLA-B*3501 (B35) single antigen on Luminex beads (human); assay: Luminex single antigen, iBeads (#6), IVIg 1:8
[32] = target: HLA-B*2705 (B27) single antigen on Luminex beads (human); assay: Luminex single antigen, iBeads (#6), IVIg 1:8
[33] = target: HLA-B*3801 (B38) single antigen on Luminex beads (human); assay: Luminex single antigen, iBeads (#6), IVIg 1:8
[34] = target: HLA-B*4701 (B47) single antigen on Luminex beads (human); assay: Luminex single antigen, iBeads (#6), IVIg 1:8
[35] = target: HLA-B*4002 (B61) single antigen on Luminex beads (human); assay: Luminex single antigen, iBeads (#6), IVIg 1:8
[36] = target: HLA-B*3901 (B39) single antigen on Luminex beads (human); assay: Luminex single antigen, iBeads (#6), IVIg 1:8
[37] = target: HLA-B*4403 (B44) single antigen on Luminex beads (human); assay: Luminex single antigen, iBeads (#6), IVIg 1:8
[38] = target: HLA-B*2708 (B27) single antigen on Luminex beads (human); assay: Luminex single antigen, iBeads (#6), IVIg 1:8
[39] = target: HLA-B*4101 (B41) single antigen on Luminex beads (human); assay: Luminex single antigen, iBeads (#6), IVIg 1:8
[40] = target: HLA-B*4006 (B61) single antigen on Luminex beads (human); assay: Luminex single antigen, iBeads (#6), IVIg 1:8
[41] = target: HLA-B*4201 (B42) single antigen on Luminex beads (human); assay: Luminex single antigen, iBeads (#6), IVIg 1:8
[42] = target: HLA-B*3701 (B37) single antigen on Luminex beads (human); assay: Luminex single antigen, iBeads (#6), IVIg 1:8
[43] = target: HLA-B*4501 (B45) single antigen on Luminex beads (human); assay: Luminex single antigen, iBeads (#6), IVIg 1:8
[44] = target: HLA-B*4402 (B44) single antigen on Luminex beads (human); assay: Luminex single antigen, iBead vs regular bead, IVIg 1:8
[45] = target: HLA-B*4601 (B46) single antigen on Luminex beads (human); assay: as above
[46] = target: HLA-B*3501 (B35) single antigen on Luminex beads (human); assay: as above
[47] = target: HLA-B*2705 (B27) single antigen on Luminex beads (human); assay: as above
[48] = target: HLA-B*4701 (B47) single antigen on Luminex beads (human); assay: as above
[49] = target: HLA-B*2708 (B27) single antigen on Luminex beads (human); assay: as above
[50] = target: HLA-B*4006 (B61) single antigen on Luminex beads (human); assay: as above
[51] = target: HLA-B*4201 (B42) single antigen on Luminex beads (human); assay: as above
[52] = target: HLA-B*3701 (B37) single antigen on Luminex beads (human); assay: as above
[53] = target: HLA-B*4501 (B45) single antigen on Luminex beads (human); assay: as above

Substance: IVIg GamaSTAN S/D (Talecris Biotherapeutics, Inc., USA) (antibody)
- Difference % (iBead MFI against regular bead MFI) [1]: 1%
- Difference % (iBead MFI against regular bead MFI) [2]: 5%
- Difference % (iBead MFI against regular bead MFI) [3]: 437%
- Difference % (iBead MFI against regular bead MFI) [4]: 28%
- MFI [5]: 2080 MFI
- MFI [6]: 2850 MFI
- MFI [7]: 431 MFI
- MFI [8]: 2410 MFI
- MFI [9]: 2060 MFI
- MFI [10]: 2700 MFI
- MFI [11]: 80 MFI
- MFI [12]: 1880 MFI

Substance: GamaSTAN S/D (IVIg, Talecris Biotherapeutics, Inc., USA) (antibody)
- MFI [13]: 1720 MFI
- MFI [14]: 1830 MFI
- MFI [15]: 680 MFI
- MFI [16]: 1370 MFI
- MFI [17]: 619 MFI
- MFI [18]: 1770 MFI
- MFI [19]: 0 MFI
- MFI [20]: 3390 MFI
- MFI [21]: 3470 MFI
- MFI [22]: 598 MFI
- MFI [23]: 3240 MFI
- MFI [24]: 3670 MFI
- MFI [25]: 3790 MFI
- MFI [26]: 0 MFI
- MFI [27]: 5030 MFI
- Difference % (iBead against regular bead) [28]: -100%
- MFI [29]: 2290 MFI
- MFI [30]: 3380 MFI
- MFI [31]: 653 MFI
- MFI [32]: 1080 MFI
- MFI [33]: 0 MFI
- MFI [34]: 3210 MFI
- MFI [35]: 1190 MFI
- MFI [36]: 0 MFI
- MFI [37]: 2900 MFI
- MFI [38]: 1410 MFI
- MFI [39]: 870 MFI
- MFI [40]: 2370 MFI
- MFI [41]: 286 MFI
- MFI [42]: 392 MFI
- MFI [43]: 5400 MFI
- Difference % (iBead against regular bead MFI) [44]: -22%
- Difference % (iBead against regular bead MFI) [45]: -20%
- Difference % (iBead against regular bead MFI) [46]: -4%
- Difference % (iBead against regular bead MFI) [47]: -21%
- Difference % (iBead against regular bead MFI) [48]: 81%
- Difference % (iBead against regular bead MFI) [49]: 32%
- Difference % (iBead against regular bead MFI) [50]: -32%
- Difference % (iBead against regular bead MFI) [51]: -52%
- Difference % (iBead against regular bead MFI) [52]: -88%
- Difference % (iBead against regular bead MFI) [53]: 47%
